Laboratory results from publication PMC3683248 (Structure (London, England : 1993), 2009).

T1: V3 peptide of HIV-1 clade B strain MN (HIV-1 clade B, isolate MN)
T1 chain: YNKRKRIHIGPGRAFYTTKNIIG

T2: V3 peptide NY/5 (HIV-1 group M subtype B, isolate NY5, strain)
T2 chain: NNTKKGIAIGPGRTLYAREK

B1: Fab fragment of human monoclonal antibody 537-10D (Fab, V domains shown)
VH: QVQLVQSGGGLVQPGGSLRLSCVASGFTFNNYWMSWVRQAPGKGLEWVANIKQDGNDKYYVDSVKGRFTISRDNAKNSLFLQMNSLRAEDTAVYFCAREFSSYTDHLEYYYDYYYMDVWGKGTTVTVSS
VL: QSALTQPASVSGSPGQSITISCTGTSTDVNGYNYVSWYQQYAGKAPKLIIFDVSKRPSGVSNRFSGSKSGDTASLTISGLQAEDEADYHCSSYTSSTPYVLFGGGTKLTVL
B2: human monoclonal antibody 447-52D (IgG3, lambda) (antibody, V domains shown)
VH: EVQLVESGGGLVKPGGSLRLTCVASGFTFSDVWLNWVRQAPGKGLEWVGRIKSRTDGGTTDYAASVKGRFTISRDDSKNTLYLQMNSLKTEDTAVYSCTTDGFIMIRGVSEDYYYYYMDVWGKGTTVTVSS
VL: QSVLTQPPSVSAAPGQKVTISCSGSSSNIGNNYVLWYQQFPGTAPKLLIYGNNKRPSGIPDRFSGSKSGTSATLGITGLQTGDEADYFCATWDSGLSADWVFGGGTKLTVL

Experiments:
[1] = target: T1, V3 peptide of HIV-1 clade B strain MN; experiment: crystal structure
[2] = target: T2, V3 peptide NY/5; experiment: ELISA

Binder	binding result [1]	binding result [2]
B1	binds	
B2		binds
